From patent US20250136677A1 (ZOETIS SERVICES, published 2025) come the findings set out here.

Residue numbers refer to the chain shown, from its start.

The target of assay [1] is T1, human IL-31 (human, UniProt Q6EBC2 24-164).
T1 sequence: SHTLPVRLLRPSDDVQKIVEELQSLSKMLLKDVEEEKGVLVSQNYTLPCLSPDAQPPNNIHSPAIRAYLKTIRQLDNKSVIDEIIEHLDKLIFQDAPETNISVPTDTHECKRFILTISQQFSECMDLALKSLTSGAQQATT
Briefly: SPR (Biacore), IL-31 surface, single antibody concentration. A general note: SPR reads the build-up and loss of mass on a sensor chip optically.

Assay [2] concerns the target T2, equine IL-31 protein (Equine_IL31) (equine).
T2 construct: Recombinant equine IL-31
T2 chain: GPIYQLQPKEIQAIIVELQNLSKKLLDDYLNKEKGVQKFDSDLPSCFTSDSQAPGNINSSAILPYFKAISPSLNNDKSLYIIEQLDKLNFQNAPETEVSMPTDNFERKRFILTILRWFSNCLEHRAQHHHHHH
The assay is described as follows: SPR (Biacore), IL-31 protein as surface capture. The method, then:
(§1) The affinity with which candidate mAbs bind canine and feline IL-31 was determined using surface plasmon resonance (SPR) on a Biacore system (Biocore Life Sciences (GE Healthcare), Uppsala, Sweden). To avoid affinity differences associated with differential surface preparation that can occur when immobilizing antibodies to surfaces; a strategy was employed where IL-31 was directly conjugated to the surface. Immobilization was obtained by amine coupling 5 μg/mL IL-31 using N-hydroxysuccinimide (NHS)/1-Ethyl-3-(3-dimethylaminopropyl) carbodiimide (EDC) chemistry. Chips were quenched with ethanolamine and the affinity with which all candidate mAbs bound to the immobilized IL-31 was evaluated. All curves were fit to a 1:1 model. […] Results for affinity measurements are described herein.
(§2) Table 1 below describes the results for biacore analysis using multiple species of IL-31 protein as a surface capture.

Assay [3] concerns the target T3, mutant feline IL-31 11E12 protein (Feline_IL31_11E12_mutant) (feline).
T3 construct: also called feline 11E12 mutant; 11E12 IL-31 mutant
T3 chain: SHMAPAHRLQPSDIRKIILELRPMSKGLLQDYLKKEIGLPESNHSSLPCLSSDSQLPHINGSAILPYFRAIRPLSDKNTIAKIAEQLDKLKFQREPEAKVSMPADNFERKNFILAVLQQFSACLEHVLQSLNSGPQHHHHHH
Briefly: SPR (Biacore), IL-31 protein as surface capture. The method, then: as §1, §2

Assay [4] addresses T4, wildtype feline IL-31 protein (Feline_IL31_wildtype) (feline).
T4 construct: Full length feline IL-31 with C-terminal His tag, secreted from ExpiCHO cells; also called fIL-31
T4 chain: T3 chain with A81D, A84I
Briefly: SPR (Biacore), IL-31 protein as surface capture. Here is the method:
as §1, §2

For assay [5], the target named is T5, canine IL-31 protein (Canine_IL31) (canine).
T5 chain: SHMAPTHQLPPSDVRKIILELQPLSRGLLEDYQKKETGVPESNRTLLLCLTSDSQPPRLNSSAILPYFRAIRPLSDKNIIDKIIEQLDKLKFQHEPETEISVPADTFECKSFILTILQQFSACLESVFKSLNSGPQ
The assay is described as follows: SPR (Biacore), IL-31 on chip, 1:1 fit.

For assay [6], the target named is T5, canine IL-31 protein (Canine_IL31).
Assay [7] has the same target. Briefly: SPR (Biacore), IL-31 protein as surface capture.
For assay [8] the target is unchanged. Briefly: cell-based or functional assay.
Assay [9] concerns the target T4, wildtype feline IL-31 protein …. Briefly: cell-based or functional assay.

B1: mouse anti IL-31 antibody 15H05 (antibody, mouse IgG1, kappa)
heavy: QVQLQQSAAELARPGASVKMSCKTSGYTFTSYTIHWIKQRPGQGLEWIGNINPTSGYTENNQRFKDKTTLTVDRSSNTAYLQLHSLTSEDSAVYFCARWGFKYDGEWSFDVWGAGTTVTVSSKTTPPSVYPLAPGSAAQTNSMVTLGCLVKGYFPEPVTVTWNSGSLSSGVHTFPAVLESDLYTLSSSVTVPSSPRPSETVTCNVAHPASSTKVDKKIVPRDCGCKPCICTVPEVSSVFIFPPKPKDVLTITLTPKVTCVVVDISKDDPEVQFSWFVDDVEVHTAQTQPREEQFNSTFRSVSELPIMHQDWLNGKEFKCRVNSAAFPAPIEKTISKTKGRPKAPQVYTIPPPKEQMAKDKVSLTCMITDFFPEDITVEWQWNGQPAENYKNTQPIMNTNGSYFVYSKLNVQKSNWEAGNTFTCSVLHEGLHNHHTEKSLSHSPGK
light: DIQMNQSPSSLSASLGDTITVTCRASQGISIWLSWYQQKPGNIPKVLINKASNLHIGVPPRFSGSGSGTHFTLTITSLQPEDIATYYCLQSQTYPLTFGGGTKLEINADAAPTVSIFPPSSEQLTSGGASVVCFLNNFYPKDINVKWKIDGSERQNGVLNSWTDQDSKDSTYSMSSTLTLTKDEYERHNSYTCEATHKTSTSPIVKSFNRNEC
notes: Mouse hybridoma antibody, IgG1 kappa; also called Mu-15H05; MU-15H05
For the molecule B1, the binding result in [1] is on record as “no binding”. For the same molecule, the Kd (in general, the free concentration of one partner at which half of the binding sites on the other are occupied at equilibrium, for simple one-to-one binding) in assay [2] stood at 0.306 nM; in [3], 11.5 nM; in assay [4], 0.306 nM; in assay [7], 0.00191 nM. In addition, the koff (as a rule, the rate constant with which the complex falls apart) in [5] stood at 6.56e-07 s⁻¹. Also, the kon (usually a measure of how fast the partners come together) in assay [5] worked out at 135000 M⁻¹ s⁻¹. Further, in [6], the IC50, inhibition of canine IL-31-induced STAT3 phosphorylation, feline FCWF4 cells was 25.7 µg/mL. Also, the Inhibition of IL-31 induced pSTAT3 IC50 (µg/ml), Canine IL-31 on Canine DH82 cells in assay [8] was found to be 11.2 µg/ml. In addition, the “IC50, inhibition of feline IL-31-induced STAT3 phosphorylation, canine DH82 cells” value in assay [9] amounted to 2.7 µg/mL. For the same molecule, the “IC50, inhibition of feline IL-31-induced STAT3 phosphorylation, feline FCWF4 cells” value in [9] was determined as 4.26 µg/mL.
